# Measurements as given in patent US20220278152, “SPECTRALLY FILTERED PHOTODIODE PAIR” (UNIVERSITY OF MASSACHUSETTS, published 2022).
# Experiments:
# Streptavidin = Streptavidin (UniProt P22629 P22629:25-183); assay: specificity control; 0.1 pM-1 nM free streptavidin, <5% signal change, 1x PBS; biotinylated aptamer already immobilised on surface streptavidin; conditions: tags: Sigma Aldrich; chain copies: 4; label: Cy5 (5'), biotin (3'); hairpin (self-hybridizes without IFN-γ)
# Protocol: After each analyte's respective incubation period, the extra unbonded analyte was removed by washing with 9 mL deionized water.
# (§1) Following this surface functionalization procedure, two aptasensing experiments were conducted where, in each experiment, the device was kept in 1×PBS and sequentially introduced 0.1 pM-1 nM analyte in 15-minute intervals followed by a water washing step and reintroduced analytes and water washing as 2nd round via the microfluidic channel (FID. 10a-c). During introducing each concentration, an upright fluorescence microscope was used to illuminate the PD array with pulses of 550/15 nm excitation light (Ilight=100%, 260 mW) which have tₒₙ/toff=18/162 s (i.e., 3 min period) to alleviate the photobleaching effect.
# For the first experiment, streptavidin was sequentially introduced as a control to evaluate the specificity of the array. […] For the second experiment, IFN-γ was sequentially introduced to evaluate the sensibility of the array. […] Due to this conformation change, less AF555 emission light will excite the Cy5 molecules, leading to the observed increase [decrease] in AF555 [Cy5] pixel signals.
# Interferon gamma (IFN-γ) = Interferon gamma (IFN-γ) (Homo sapiens, UniProt P01579 P01579:24-166); assay: FRET ratiometric photodiode aptasensor; aptamer on AF555-streptavidin/biotin-BSA surface; signal change 0.1-10 pM, LOD 1 pM, saturated at 100 pM-1 nM; 1x PBS; reversible by 55 C water wash; conditions: tags: R&D Systems, recombinant human IFN-γ; chain copies: 2; label: Cy5 (5'), biotin (3'); hairpin (self-hybridizes without IFN-γ)
# Sequence of Interferon gamma (IFN-γ) (P01579 24-166, one chain of several): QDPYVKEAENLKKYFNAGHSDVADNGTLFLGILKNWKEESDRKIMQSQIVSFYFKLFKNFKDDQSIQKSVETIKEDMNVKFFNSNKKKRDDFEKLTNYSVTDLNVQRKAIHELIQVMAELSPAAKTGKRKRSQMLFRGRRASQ
# Excerpt: To package the PD array for ratiometric aptasensing experiments, a 50 μm tall PDMS microfluidic channel with one inlet and one outlet hole was fabricated via a standard SU-8 photolithography process, and then bonded the microfluidic channel over the PD array via O₂ plasma. Tubing was inserted into the inlet and outlet holes to allow for injection and removal of analytes. To achieve ratiometric aptasensing […], the surface of the array was functionalized by sequentially introducing BSA, AF555 conjugated streptavidin, and biotinylated Cy5 labeled IFN-γ DNA aptamers. After each analyte's respective incubation period, the extra unbonded analyte was removed by washing with 9 mL deionized water.
# as §1, with “effect. […]” for “effect.”
# Sequence of Streptavidin (P22629 25-183, one chain of several): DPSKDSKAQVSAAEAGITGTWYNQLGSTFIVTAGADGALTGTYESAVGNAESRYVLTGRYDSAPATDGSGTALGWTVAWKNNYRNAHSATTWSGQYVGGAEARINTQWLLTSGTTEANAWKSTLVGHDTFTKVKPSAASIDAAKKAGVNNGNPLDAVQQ
binder,measurement,setting,value
"GGGGTTGGTTGTGTTGGGTGTTGTGTCCAACCCCTTT (ssDNA, 5' Cy5, 3' biotin [1 (5' Cy5), 37 (3' biotin)]) [IFN-γ DNA aptamer]",binding result,Streptavidin,no binding
same,binding result,Interferon gamma (IFN-γ),binds
